# Measurements reported in patent publication US20120231005A1 (Merck Sharp & Dohme, published 2012).
# Positions count from the first letter of the chain named.
# B1: AX191 IgG2 (antibody)
# heavy: EVQLLESGGGLVQPGGSLRLSCKASGYTFSSYWMHWVRQAPGKGLEWIGRIDPYNGGTKYNEKFKGKATISRDNSKNTLYLQMNSLRAEDTAVYYCARYGYYLGSYAMDYWGQGTLVTVSSASTKGPSVFPLAPCSRSTSESTAALGCLVKDYFPEPVTVSWNSGALTSGVHTFPAVLQSSGLYSLSSVVTVPSSNFGTQTYTCNVDHKPSNTKVDKTVERKCCVECPPCPAPPVAGPSVFLFPPKPKDTLMISRTPEVTCVVVDVSHEDPEVQFNWYVDGVEVHNAKTKPREEQFNSTFRVVSVLTVVHQDWLNGKEYKCKVSNKGLPAPIEKTISKTKGQPREPQVYTLPPSREEMTKNQVSLTCLVKGFYPSDIAVEWESNGQPENNYKTTPPMLDSDGSFFLYSKLTVDKSRWQQGNVFSCSVMHEALHNHYTQKSLSLSPGK
# light: DIQMTQSPSSLSASVGDRVTITCRASQDISKYLAWYQQKPGKAPKLLIYAASSLQSGVPSRFSGSGSGTDFTLTISSLQPEDFATYYCQAYDYSSSAYVFGGGTKVEIKRTVAAPSVFIFPPSDEQLKSGTASVVCLLNNFYPREAKVQWKVDNALQSGNSQESVTEQDSKDSTYSLSSTLTLSKADYEKHKVYACEVTHQGLSSPVTKSFNRGEC
# notes: IgG2
# B2: AX1 Fab (Fab, V domains shown)
# VH: EVQLLESGGGLVQPGGSLRLSCKASGFTFTSYYMHWVRQAPGKGLEWIGRINPDSGSTKYNEKFKGRATISRDNSKNTLYLQMNSLRAEDTAVYYCARGGRLSWDFDVWGQGTLVTVSS
# VL: DIQMTQSPSSLSASVGDRVTITCRASQDISRYLAWYQQKPGKAPKLLIYAASSLQSGVPSRFSGSGSGTDFTLTISSLQPEDFATYYCAAYDYSLGGYVFGDGTKVEIKR
# notes: Soluble Fab from E. coli TG1 periplasm; Tags encoded by the display vector are not described for the protein
# B3: AX422 Fab (Fab, V domains shown)
# VH: EVQLLESGGGLVQPGGSLRLSCKASGYTFSSYWMHWVRQAPGKGLEWIGRIDPYSGGTKYNEKFKGKATISRDNSKNTLYLQMNSLRAEDTAVYYCARYGYYLGSYAMDYWGQGTLVTVSS
# VL: DIQMTQSPSSLSASVGDRVTITCRASQDVSRYLTWYQQKPGKAPKLLIYAASSLQSGVPSRFSGSGSGTDFTLTISSLQPEDFATYYCQAYDYSLSGYVFGGGTKVEIK
# notes: also called AX189_VH 55N to S
# B4: AX9 Fab (Fab, V domains shown)
# VH: B3 VH with S55N
# VL: B2 VL with I29V, R31K, A89Q, A90V, Y93S, L95P, G96N, G97A, D102G
# B5: AX195 Fab (Fab, V domains shown)
# VH: B3 VH with S55N
# VL: B3 VL with D28A, R31K, T34A, S96G, G97D
# B6: AX193 Fab (Fab, V domains shown)
# VH: B3 VH with S55N
# VL: B3 VL with D28A, V29I, R31K, T34N, Q89E, A90S, S96G, G97R
# B7: AX197 Fab (Fab, V domains shown)
# VH: B3 VH with S55N
# VL: B3 VL with D28A, V29I, T34A, S96G, G97H
# B8: AX200 Fab (Fab, V domains shown)
# VH: B3 VH with S55N
# VL: B3 VL with R31K, T34A, Q89E, G97H
# B9: AX199 Fab (Fab, V domains shown)
# VH: B3 VH with S55N
# VL: B3 VL with D28S, R31N, T34H, S96G, G97P
# B10: AX425 Fab (Fab, V domains shown)
# VH: B3 VH with S55D
# VL: B3 VL
# notes: also called AX189_VH 55N to D
# B11: AX191 Fab (Fab, V domains shown)
# VH: B3 VH with S55N
# VL: B3 VL with V29I, R31K, T34A, L95S, G97A
# B12: AX194 Fab (Fab, V domains shown)
# VH: B3 VH with S55N
# VL: B3 VL with I21T, D28A, S96G, G97A
# B13: AX423 Fab (Fab, V domains shown)
# VH: B3 VH with S55N, G56T
# VL: B3 VL
# notes: also called AX189_VH 56G to T
# B14: AX196 Fab (Fab, V domains shown)
# VH: B3 VH with S55N
# VL: B3 VL with M4I, T34A, Q89E, A90S, G97H
# B15: AX421 Fab (Fab, V domains shown)
# VH: B3 VH with S55N, G56E
# VL: B3 VL
# notes: also called AX189_VH 56G to E
# B16: AX424 Fab (Fab, V domains shown)
# VH: B3 VH with S55T
# VL: B3 VL
# notes: also called AX189_VH 55N to T
# B17: AX198 Fab (Fab, V domains shown)
# VH: B3 VH with S55N
# VL: B3 VL with D28A, R31S, T34N, Q89E, S96G, Y98W
# B18: AX189 Fab (Fab, V domains shown)
# VH: B3 VH with S55N
# VL: B2 VL with I29V, A34T, A89Q, G96S, D102G
# notes: The heavy chain is the Fd chain
# B19: AX114 IgG2 (antibody, V domains shown)
# VH: EVQLLESGGGLVQPGGSLRLSCKASGYTFSSYGMYWVRQAPGKGLEWIGWIDPGSGGTKYNEKFKGKATISRDNSKNTLYLQMNSLRAEDTAVYYCARERYGYYFDYWGQGTLVTVSS
# VL: EIVLTQSPATLSLSPGERATITCRASQYVGTYLNWYQQKPGQAPRLLIYDASNRATGIPARFSGSGSGTDFTLTISSLEPEDFAVYYCQVWDSSPPVAFGGGTKVEIK
# B20: AX132 IgG2 (antibody, from another filing, V domains shown)
# VH: B19 VH
# VL: EIVLTQSPATLSLSPGERATITCRASQYVGSYLNWYQQKPGQAPRLLIYDASNRATGIPARFSGSGSGTDFTLTISSLEPEDFAVYYCQVWDSSPPVVFGGGTKVEIKR
# B21: AX188 IgG2 (antibody, V domains shown)
# VH: B3 VH with S55N
# VL: B2 VL with D28S, I29V, A89E, L95S, G97P, Y98W, D102G
# notes: IgG2
# B22: AX424 IgG2 (antibody, V domains shown)
# VH: B3 VH with S55T
# VL: B2 VL with I29V, A34T, A89Q, G96S, D102G
# notes: also called AX424 (55N to T)
# B23: AX422 IgG2 (antibody, V domains shown)
# VH: B3 VH
# VL: B2 VL with I29V, A34T, A89Q, G96S, D102G
# notes: also called AX422 (55N to S)
# Molecular target: T1, human FcRn (human, UniProt P55899 24-297; P61769 21-119, limits assumed)
# T1 construct: Beta-2-microglobulin is not mentioned for the purified protein; also called human FeRn
# T1 sequence (P55899 24-297 limits assumed, form in doubt, chain 1 of 2): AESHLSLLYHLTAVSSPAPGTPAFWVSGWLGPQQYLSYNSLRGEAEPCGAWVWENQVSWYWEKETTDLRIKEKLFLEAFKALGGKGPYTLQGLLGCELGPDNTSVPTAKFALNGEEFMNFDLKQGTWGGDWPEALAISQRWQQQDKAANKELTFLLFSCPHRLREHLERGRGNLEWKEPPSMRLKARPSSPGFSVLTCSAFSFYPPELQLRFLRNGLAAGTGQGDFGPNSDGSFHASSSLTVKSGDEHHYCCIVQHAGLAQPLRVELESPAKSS
# T1 sequence (P61769 21-119 limits assumed, form in doubt, chain 2 of 2): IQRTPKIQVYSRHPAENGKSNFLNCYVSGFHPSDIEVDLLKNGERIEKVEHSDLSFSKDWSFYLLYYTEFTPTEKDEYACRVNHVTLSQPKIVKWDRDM
# Assay: Biacore; human FcRn immobilised, 100 nM mAb bound at pH 6.0, read 5 s into dissociation at pH 7.3
# Protocol: The neutral pH dissociation of mAbs from human FeRn was measured by SPR using a Biacore T-100 instrument. Briefly, purified FeRn protein was immobilized onto a Biacore CM5 biosensor chip and PBSP (50 mM NaPO4, 150 mM NaCl and 0.05% (v/v) Surfactant 20) pH 7.3 was used as running buffer. The mAbs were diluted with PBSP pH 6.0 to 100 nM, allowed to bind FcRn for 3 minutes to reach equilibrium and followed by 1 minute of dissociation in pH 7.3 running buffer. A report point (Stability) was inserted at 5 seconds after the end of mAb binding and the “% bound” was calculated as RUStability/RUBinding (%).
row,Binder,% bound (RUStability/RUBinding)
1,B1,1.1%

# Molecular target: T2, human PCSK9 (human, UniProt Q8NBP7 31-692, limits assumed)
# T2 construct: It carried an AlexaFluor647 label in the TR-FRET assay only; also called hPCSK9; wild type human PCSK9
# T2 sequence (Q8NBP7 31-692 limits assumed): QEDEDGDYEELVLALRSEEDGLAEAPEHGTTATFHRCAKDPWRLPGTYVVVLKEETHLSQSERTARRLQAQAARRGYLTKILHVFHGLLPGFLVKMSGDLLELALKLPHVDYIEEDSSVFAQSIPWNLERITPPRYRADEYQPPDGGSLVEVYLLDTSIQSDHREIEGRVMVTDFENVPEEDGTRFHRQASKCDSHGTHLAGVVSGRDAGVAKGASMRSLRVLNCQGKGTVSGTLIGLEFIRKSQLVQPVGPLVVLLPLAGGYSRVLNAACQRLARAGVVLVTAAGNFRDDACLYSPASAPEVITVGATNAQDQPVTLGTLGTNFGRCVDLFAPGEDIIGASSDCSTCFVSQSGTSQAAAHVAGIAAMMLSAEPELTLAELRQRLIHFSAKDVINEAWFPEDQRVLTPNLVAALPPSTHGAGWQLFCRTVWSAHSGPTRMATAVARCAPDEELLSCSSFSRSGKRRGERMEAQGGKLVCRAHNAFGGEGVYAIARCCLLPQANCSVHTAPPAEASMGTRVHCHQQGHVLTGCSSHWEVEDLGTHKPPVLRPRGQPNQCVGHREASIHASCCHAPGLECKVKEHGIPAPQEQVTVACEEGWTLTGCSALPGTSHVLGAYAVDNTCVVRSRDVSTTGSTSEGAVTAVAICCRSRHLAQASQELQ
# Assay: SPR (Biacore); Fab captured on anti-Fab IgG, PCSK9 injected; 1:1 Langmuir fit
# Protocol: First, goat anti-Fab IgGs were immobilized onto CM5 chip by amine coupling as described above. The anti-Fab IgGs were diluted to 200 μg/ml in pH 5/10 mM Acetate solution, and injected onto the NHS/EDC activated surface to achieve an immobilization level of ˜10,000 RU, followed with surface inactivation by injection of Ethanolamine. […] The sensor chip surface was regenerated by 30 second injection of 100 mM phosphoric acid. The binding sensorgrams were fitted with 1:1 Langmuir binding model to determine the binding affinity.
row,Binder,Kd
1,B2,6 nM
2,B3,4.1 nM
3,B4,23.9 nM
4,B5,9.9 nM
5,B6,7 nM
6,B7,5.6 nM
7,B8,9.6 nM
8,B9,26.2 nM
9,B10,17.6 nM
10,B11,5.2 nM
11,B12,6.1 nM
12,B13,32.8 nM
13,B14,18.3 nM
14,B15,6.7 nM
15,B16,4.2 nM
16,B17,4.3 nM
17,B18,6.3 nM

# Molecular target: rhesus PCSK9 (rhesus)
# Assay: affinity table, IgG2 (Biacore)
row,Binder,Kd
1,B19,11.6 nM
2,B20,2.59 nM

# Molecular target: rhesus PCSK9 (rhesus)
# Assay: cell-based or functional assay
row,Binder,"IgG IC50 (nM), inhibition of PCSK9 on LDL uptake (Exopolar assay)"
1,B21,18.7 nM
2,B1,6.6 nM

# Molecular target: T2, human PCSK9
# Assay: affinity table, IgG2 (Biacore)
# Protocol: (§1) The affinities of those IgG molecules were also measured by Biacore assay. Briefly, anti-human IgG monoclonal antibody form Human Antibody Capture Kit provided by Biacore was immobilized on CM5 chips at a level of 8000 to 10000 RU. […] After each round injection, the sensor chip surface was regenerated by 30 second injection of 3M Magnesium Chloride.
row,Binder,Kd
1,B19,24 nM

# Molecular target: T3, mouse PCSK9 (mouse, UniProt Q80W65 35-694, limits assumed)
# T3 construct: also called Mouse PCSK9 9
# T3 sequence (Q80W65 35-694 limits assumed): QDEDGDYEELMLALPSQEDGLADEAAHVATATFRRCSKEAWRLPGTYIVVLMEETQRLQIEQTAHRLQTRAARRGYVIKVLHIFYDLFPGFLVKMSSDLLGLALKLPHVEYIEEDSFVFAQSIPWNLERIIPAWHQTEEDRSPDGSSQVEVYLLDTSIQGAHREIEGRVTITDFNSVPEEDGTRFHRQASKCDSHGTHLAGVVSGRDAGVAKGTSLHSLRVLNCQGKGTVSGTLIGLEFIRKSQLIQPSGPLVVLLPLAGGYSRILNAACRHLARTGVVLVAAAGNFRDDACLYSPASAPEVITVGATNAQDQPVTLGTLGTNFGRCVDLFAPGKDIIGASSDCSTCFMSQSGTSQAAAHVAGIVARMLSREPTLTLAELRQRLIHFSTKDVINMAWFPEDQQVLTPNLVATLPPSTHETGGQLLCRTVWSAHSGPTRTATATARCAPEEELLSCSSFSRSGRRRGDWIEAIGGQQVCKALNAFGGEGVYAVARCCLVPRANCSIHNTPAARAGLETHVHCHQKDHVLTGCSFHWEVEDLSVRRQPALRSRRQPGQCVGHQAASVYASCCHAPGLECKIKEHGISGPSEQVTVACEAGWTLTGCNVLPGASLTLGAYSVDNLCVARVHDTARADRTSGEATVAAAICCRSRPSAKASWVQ
# Assay: affinity table, IgG2 (Biacore)
# Protocol: as §1
row,Binder,Kd
1,B19,11.2 nM

# Molecular target: T2, human PCSK9
# Assay: SPR (Biacore); IgG captured on anti-human IgG, PCSK9 injected
# Protocol: as §1
row,Binder,Kd
1,B21,0.873 nM
2,B1,0.846 nM
3,B22,2.16 nM
4,B23,2.12 nM

# Molecular target: rhesus PCSK9 (rhesus)
# Assay: as above
row,Binder,Kd
1,B21,0.454 nM
2,B1,0.625 nM
3,B22,2.36 nM
4,B23,1.96 nM

# Molecular target: T2, human PCSK9
# Assay: cell-based or functional assay
Binder,"IgG IC50 (nM), inhibition of PCSK9 on LDL uptake (Exopolar assay)","Fab IC50 (nM), inhibition of PCSK9 on LDL uptake (Exopolar assay)"
B21,24.8 nM,
B2,,146 nM
B4,,287 nM
B1,8.7 nM,
B22,6 nM,
B23,5 nM,
B11,,13 nM
B18,,31 nM

# Molecular target: T2, human PCSK9
# Assay: TR-FRET; antibody titrated against 10 nM AF647-PCSK9 and about 4 nM Eu-LDLR ectodomain
# Protocol: After at least 90 minutes of equilibration, samples were read in a Rubystar reader (BMG Corp.) using 20 flashes per well, a 50 μsec integration delay, and a 200 μsec total integration time.
row,Binder,IC50
1,B1,3 nM
